# Measurements from patent US20250090676A1 (SUTRO BIOPHARMA, published 2025).
# Where a chain is given by its changes, count along the chain named.
# B1: SRP1848-B06 (antibody, V domains shown)
# VH: EVQLVESGGGLVQPGGSLRLSCAASGFNISNYYIHWVRQAPGKGLEWVGGITPIDGYTDYADSVKGRFTISADTSKNTAYLQMNSLRAEDTAVYYCARGFWSWPSGYGYYQDYWGQGTLVTVSS
# VL: not shown
# notes: HC variant paired with trastuzumab LC, cell-free expressed, HIS- and FLAG-tagged; also called Antibody 13
# B2: SRP1848-C03 (antibody, V domains shown)
# VH: EVQLVESGGGLVQPGGSLRLSCAASGFNIGVYSIHWVRQAPGKGLEWVGEIYPIDGNTDYADSVKGRFTISADTSKNTAYLQMNSLRAEDTAVYYCARGSWAWRSGYSYYLDYWGQGTLVTVSS
# VL: not shown
# notes: HC variant paired with trastuzumab LC, cell-free expressed, HIS- and FLAG-tagged; also called Antibody 19
# B3: SRP1848-B07 (antibody, V domains shown)
# VH: B1 VH with N31R, Y32F, T52S, I54Y, Y57F, F100S, S105A
# VL: not shown
# notes: HC variant paired with trastuzumab LC, cell-free expressed, HIS- and FLAG-tagged; also called Antibody 14
# B4: SRP1848-B10 (antibody, V domains shown)
# VH: B2 VH with I29T, G30T, V31T, Y32K, I54R, N57I, S100G, A102H
# VL: not shown
# notes: HC variant paired with trastuzumab LC, cell-free expressed, HIS- and FLAG-tagged; also called Antibody 16
# B5: SRP1848-D04 (antibody, V domains shown)
# VH: B2 VH with G30S, V31H, I54R, N57I, R87S, S100Y, A102F, S108G
# VL: not shown
# notes: HC variant paired with trastuzumab LC, cell-free expressed, HIS- and FLAG-tagged; also called Antibody 26
# B6: SRP1848-C05 (antibody, V domains shown)
# VH: B2 VH with G30R, V31K, E50D, Y52F, N57I, T58N, A102S, R104K, S105A, S108G
# VL: not shown
# notes: HC variant paired with trastuzumab LC, cell-free expressed, HIS- and FLAG-tagged; also called Antibody 21
# B7: SRP1848-D05 (antibody, V domains shown)
# VH: B1 VH with N31I, Y32S, T52S, F100S, P104R, S105A, Q111L
# VL: not shown
# notes: HC variant paired with trastuzumab LC, cell-free expressed, HIS- and FLAG-tagged; also called Antibody 27
# B8: SRP1848-C04 (antibody, V domains shown)
# VH: B2 VH with G30R, V31H, I54G, D55P, W101L, A102S, S105A, S108G
# VL: not shown
# notes: HC variant paired with trastuzumab LC, cell-free expressed, HIS- and FLAG-tagged; also called Antibody 20
# B9: SRP1848-C07 (antibody, V domains shown)
# VH: B1 VH with S30R, N31K, Y33S, G50D, T52F, Y57I, V64M, F100S, S105A
# VL: not shown
# notes: HC variant paired with trastuzumab LC, cell-free expressed, HIS- and FLAG-tagged; also called Antibody 22
# B10: SRP1848-B11 (antibody, V domains shown)
# VH: B2 VH with V31N, Y32N, E50D, Y52S, N57F, A102S, S105A, S108G
# VL: not shown
# notes: HC variant paired with trastuzumab LC, cell-free expressed, HIS- and FLAG-tagged; also called Antibody 17
# B11: SRP1848-B09 (antibody, V domains shown)
# VH: B1 VH with S25G, S30T, I54V, S63R, F100A, P104R, Q111M
# VL: not shown
# notes: HC variant paired with trastuzumab LC, cell-free expressed, HIS- and FLAG-tagged; also called Antibody 15
# B12: SRP1848-D02 (antibody, V domains shown)
# VH: B1 VH with N31H, Y32N, I54Q, S85R, F100A, P104R, S105A, Q111L
# VL: not shown
# notes: HC variant paired with trastuzumab LC, cell-free expressed, HIS- and FLAG-tagged; also called Antibody 24
# B13: SRP1848-C10 (antibody, V domains shown)
# VH: B1 VH with S30R, N31T, T52S, F100S, S105A, Q111L
# VL: not shown
# notes: HC variant paired with trastuzumab LC, cell-free expressed, HIS- and FLAG-tagged; also called Antibody 23
# B14: SRP1848-C01 (antibody, V domains shown)
# VH: EVQLVESGGGLVQPGGSLRLSCAASGFNIGNSYIHWVRQAPGKGLEWVGGVTPNDGYTDYADSVKGRFTISADTSKNTTYLQMNSLRAEDTAVYYCARGSWFWRAGYGYYLDYWGQGALVTVSS
# VL: not shown
# notes: HC variant paired with trastuzumab LC, cell-free expressed, HIS- and FLAG-tagged; also called Antibody 18
# Biological target: T1, cynomolgus monkey folate receptor alpha (cynomolgus monkey, UniProt P15328 25-234 (human entry))
# T1 construct: Expressed on the surface of stably transfected CHO cells; also called cyno FolR1; CHO-cyno FolR1
# Test: FACS, CHO-cFOLR1 cells
# T1 sequence (P15328 other isoform, or with tags, fused parts or gaps limits assumed): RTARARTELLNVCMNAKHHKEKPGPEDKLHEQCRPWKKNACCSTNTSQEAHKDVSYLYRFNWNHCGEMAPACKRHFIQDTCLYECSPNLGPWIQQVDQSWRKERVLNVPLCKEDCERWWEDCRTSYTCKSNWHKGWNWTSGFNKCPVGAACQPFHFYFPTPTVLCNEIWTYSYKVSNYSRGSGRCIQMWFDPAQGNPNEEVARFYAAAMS
Bmax (MFI),Kd [nM],Binder
26800,1.21,B1
25100,0.5,B2
25500,1.05,B3
21300,0.44,B4
25700,2.84,B5
15200,0.35,B6
22200,0.45,B7
22000,0.86,B8
18100,0.23,B9
22900,0.34,B10
25200,0.99,B11
28000,0.61,B12
16000,0.27,B13
25900,0.6,B14

# Biological target: T2, human folate receptor alpha (hFOLR1) (human, UniProt P15328 25-234)
# T2 construct: endogenous on FOLR1-positive KB and Igrov1 cells (cell killing); also called human FolR1; FolRα
# Test: FACS, CHO-hFOLR1 cells;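 further: flow cytometry of serially diluted antibodies binding CHO cells stably expressing the receptor, 60 min on ice, mixed with dye-tagged parental CHO as background control, one-site specific fit with Hill slope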
# T2 sequence (P15328 25-234 limits assumed): as the sequence (P15328 other isoform, or with tags, fused parts or gaps limits assumed) above, with T2I, R4W, K37R, R117Q, P146A, Y171H counted along it
Bmax (MFI),Kd [nM],Binder
25100,0.67,B1
29100,0.51,B2
25600,0.66,B3
28200,0.83,B4
29300,2.21,B5
26800,0.52,B6
26700,0.57,B7
26300,0.44,B8
28800,0.62,B9
28400,0.56,B10
25200,0.46,B11
28800,0.6,B12
27500,0.91,B13
28500,0.66,B14

# Biological target: T3, murine folate receptor alpha (mouse, UniProt P35846 25-232)
# T3 construct: Expressed on the surface of stably transfected CHO cells; also called mouse FolR1; CHO-mouse FolR1
# Test: FACS, CHO-mFOLR1 cells;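 further: flow cytometry binding of serially diluted test antibodies to transfected CHO cells on ice, mean fluorescence intensity, parental CHO cells give background, Kd from one-site specific binding fit with Hill slope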
# T3 sequence (P35846 25-232 limits assumed): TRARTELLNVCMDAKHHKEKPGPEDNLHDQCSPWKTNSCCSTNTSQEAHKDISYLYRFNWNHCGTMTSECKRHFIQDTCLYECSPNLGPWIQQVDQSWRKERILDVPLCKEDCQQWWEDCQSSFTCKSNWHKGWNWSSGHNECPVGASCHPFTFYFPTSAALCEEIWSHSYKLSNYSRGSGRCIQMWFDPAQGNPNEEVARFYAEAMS
binding result,Bmax (MFI),Kd [nM],Binder
no binding,,,B1
,3310,3,B2
no binding,,,B3
,2460,7.3,B4
no binding,,,B5
,4130,4.8,B6
,1360,14,B7
,2510,62,B8
,3170,1.4,B9
,1630,3.9,B10
,1420,78,B11
,916,87,B12
,2330,5.6,B13
,1370,26,B14

# Biological target: T2, human folate receptor alpha (hFOLR1)
# Test: cell-based or functional assay
Binder,"Igrov, 2° Antibody Cell Killing, Nb-SC239: EC50 [nM]","Igrov, 2° Antibody Cell Killing, Nb-SC239: Span [%]","KB, 2° Antibody Cell Killing, Nb-239: EC50 [nM]","KB, 2° Antibody Cell Killing, Nb-239: Span [%]"
B1,0.022,72,0.058,95
B2,0.035,72,0.074,93
B3,0.038,73,0.079,96
B4,,71,0.04,97
B5,0.068,77,0.38,97
B6,0.021,62,0.073,92
B7,,73,0.055,92
B8,0.016,68,0.006,94
B9,0.013,67,0.065,93
B10,0.026,74,0.058,93
B11,0.027,74,0.073,97
B12,0.027,71,0.034,93
B13,0.036,75,0.057,96
B14,0.023,68,,90
